From the domain aggregation screens of Martell et al. (2025)

Assay: soluble fraction after stress (log2 fold change); higher = more stays soluble; pooled small domains, quantitative proteomics
Settings: stress: 50 degC
Method in brief: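 Pooled custom libraries of small protein domains were measured in a high-throughput format, with quantitative proteomics as the read-out. Each library was stressed at 50°C. Aggregation propensity is given as the base-two logarithm of the fold change in how much of each protein stays soluble after the stress. Higher values mean a larger share of the protein remains in solution.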

Sequence	soluble fraction (log2)
HMGHRQRRARARNRSMLEDIPGLGPKRRQQLLRQFGGLPQLMRAGVAELSQVPGISDSLARKIHAELHPES	-1.77
HMGHYGQMTRDLIEKAKTYEEGEEKAALVLTIANLMKRHYLTWNRATVENTLIAEQLKEMSEGALTLPEDV	-0.51
HMGIAEGSSVFVRVLAAEDGGRYTVSFAGRRFSVLSRQALGIGSAFRADVKVEKGQVLLVPR	-2.37
HMGIAERKEKQKLEIRNAILEASRKLIVEEGFEKVTMRKIADLIEYSPTTVYLYFKDKNEILFHLHQ	-1.37
HMGIDVSAFSDTALEVLRLQAAGYTTREIAQQLHITQRTVKYHASENYRKLDARNLVDAVQIAQSLHI	-1.41
HMGIEIKLLMSFMTDSGRKVSLFVTDPREDVTETEIKQVMDLIIEKNIFAPNGEDIVSAKEAKIVQT	-1.25
HMGIERTNADTSFSVNVYGKELIITSNKPLVVNIYAIDGTLVRTEQVTIGVNTVSGLPSGIYVVGQQKVVI	0.297
HMGIIVDMSKIKQMLQLSEAGHSNRKIALELGINKETVNNYMQLIRNGRLDIRQLLKMDDPELERRFHA	-0.329
HMGIKLSDRQMQIVEIVKSQQPITSEQVAERLNLTRAALRSDLSILTMAGILEARPKVGYSLTGR	-0.334
HMGILPDDVKLNIKEAKKIGFPIMLKAIHGGGGRGMMIVQSEDEFADAMKITKTEAKNSFGNGDLYFEKFF	0.238
HMGITRQQALQQINQSASPKKILNASLGKRGSEFVWDIGYLSKSGKLNYVTYSFRSGEQLNAIKN	-1.02
HMGIVAGGTQSIATLRAIDTTDAQLYPDKILINVEDAGLYRLDRQSTATDDGNQVIKPTVGVGRWLKMTS	-0.11
HMGIVVDGTMTLEGVAERYGMSVGELARVIGVPPEYSNERLGRLRKSYEFEMDDIRIYIIQKQ	-1.31
HMGKAYMVPDVKNKSVNQAQLLLADKHMNGVVVDSSYVKELPAGIVLDQTPVGGMKVKEGRTVYLTINSD	-0.0262
HMGKDIYLTSGWVEKFDELNEFSNSVDNYDRLNQFGMYENAIIGDTGVIKITDEMIFDLYEKIQVPVEAGP	-0.185
HMGKEDLTAAIKKMTLNDKLDIHKIVANFQTNDSEEVITAVKWLMENNYLLKIKNNYTWNTKEK	-0.263
HMGKHYLLKDDNGTITIYKILEDGTQEVYEKTEISTTYLPQTDNIGIKQGIRVNGDEALNELIENF	-0.0212
HMGKKGPELSENEKSIFSILSKSGSMDLTTLKEASGLSNKQWDKGIKGLGKHGLTKVIKTEDALLVEVV	0.0505
HMGKKYVPGMAVKLSAVPLYAASTSKVPSTHVTGTYYLWDDEVVRGRLRITNLKSRVGISGQVTGWIDKDR	-1.23
HMGKNIQAIRYKNNMTQDQVVAKLNLMGISITKSTYAKLETNRMNIKASELVALAKLFHTDINAFFSG	-3.24
HMGKNYYEILGITKSASEEQVRKAFRGLAMEWHPDRNRSADSEERFKEINEAYQVLIDPKKRQMYDQYGR	0.388
HMGKPSSEELEALGRRTLEENVDVVEEILGGRDPKGKKIKYLEGLMMRALRGQETPEAVRRTLEELIFK	0.0847
HMGKRGKEMQTAVLAILRASDRPYSAYELLESLKDIYPKIAPPTVYRALAALTQRGQIRRLESLNAFI	-0.325
HMGKRKDFTYTGNYFSEYKNQTFPSLSSFLKLVGKYENYGTIKRRVRFGWDIDEAILRENIN	-0.773
HMGKSKAAQSSLVRSIMHQISDKNRGPMPLSEIIDRASIQSIDEAIVRSLVSRMKEQGEIYEPSLGTYEF	-0.209

Sequence	soluble fraction (log2)
HMGKTIIQLATDYLIKNMQPKSLHDIESYVLTRKKIKKSSIGAILLSKPNIFGRTEDGLFGLRIWNNFQYT	-0.738
HMGKTRSTDRTRRAILDAASDLMGKHGTSVSLARIAEAAGMSKGGLLHHFPSRNDLIRALGED	0.189
HMGKVNTRNRNEGKFYKNGKKKPANWEYRFEAAPVNGKRQQISDAGYPTEKAAYEAGIAAYEKYNSAGSVN	0.0482
HMGKVTILSNPVKDALVIMGLHNAETIDVRLFDNTGRLVMQGSQSRMDISSLSPGLYILQVNGKILKVIK	-2.21
HMGLASEVKTEDVLNEEKYDFEPDLIGNNNEAIYQNKQTGSYVLFDRNQNKVTKVLSAGEVLNHSKYNE	-0.0697
HMGLDQNTLDRVDDINDTLATGIEIGPETRGTIEELNETLANGLKAGFDEETLARVDELLRVVEDGLK	0.0149
HMGLGQRIKARREALGLSQARLGEAVGVSLQAVSNWERDEYLPDTARLPLIARALGLTPGQLME	0.0172
HMGLKDTEVYMPDVRGLIEEEAQTKLKASFLTMKVSYTSSDEVKKGYVISQAPSADSVVLKGASVTVIVS	-2.07
HMGLLVPELTAEENVSLAAMIAGVPRQQARSISADLLNRLGLGQMLDRRMGEMSGGQAQRVAIAPIYGKF	-0.274
HMGLNVSYRMDGENVVETIIFSGATMIRTVTPTGTMTIKTIENGSTSTAKVNADYSVYKKIYEAQY	-2.59
HMGLPLETVVTHATKLEIVRDGRVSGSIGLSAGVKVDVIALEGDNLQVRYRSLSGRVPVAHTGLAALA	0.105
HMGLPPIATGVNDNMSFSQAFAAARAEVGAGGAFEWHGRVYGTYYKNEWDGMSAQERHDFEIAAIRGS	-0.166
HMGLSIPLMGAKASDIEISTLNDEVQRKLKIIVKEQGHENLQRVVPLPSEAREIQAHFINGRLHLR	-0.0466
HMGLYPYSGTPADNQEANERRIFDIYSTHLERIFSDFSGATLRTKRLVLRLMQELVHSDPVRMAGILDEL	0.00204
HMGMAQELMESRLTAVFTSGKDQLAVLQRKDGSTLKLGADSKPWRIESFDGRKAVFVSADQQRVERLL	-0.209
HMGMGIGQIIKEKRTALKMTQNELAERLGVSQQSVTGWENNAAVPRESAVRGMMDIFGLSRNELFGEP	0.331
HMGMMTLGQRIAQYRKAMGISQEELGGRLGVSRQAVSKWETDAAAPDMENLLALAREFGVSVAELTETP	-0.0446
HMGMTRPLFVTDPGLVRIGLVSPIFEKLGSGKLSPQLFDQVKEDPPEQTVFDGVEFARETGIDGVIGFG	-0.124
HMGMVDKSMYSRYDVGDLVKVLRGPLEGSEGHITEINTDTGTVKVETVFFGRSTVVEVDFSEIDK	-0.281
HMGNAQELQKKLEGLKGISGIEKLESDHYAEKYLVRITQPVDHKNPAAGTFTQRVIVAHVGFDRPTILVT	0.511
HMGNHRNMSAEEEAAILAPFKARAEAGELVEISEIAKAYQSAVDHPISRGQIYFVLHRHGWRKV	-0.926
HMGNIALAIARFREMIAEDPNLQPVRLHLAMALMADHQDEAARGQLEKLRSDQLPDDIRKIVDDALAALR	-1.13
HMGNIIITPNPASDFIKIISNSPIIKFGFYDIYGNTINKKFNDNSINISDLPVGMYLINLNERYFKLLK	-0.0951
HMGNIITQEAAVKLAQDRVPNATLVKIEYDFDDGRPVYEGELREGRWEYEFEIDAATGEFLKWEKD	0.04
HMGNKWKPIILYLLSNGSMRFGMLNALIPTISKKVLTNQLKELENDGLLLRQSFAEIPPRVEYSLTEKA	-1.58
